{
  "source": "patent US9562073B2",
  "about": "“Matriptase and u-plasminogen activator substrates and other cleavable moieties and methods of use thereof” (CytomX Therapeutics, Inc., priority 2014, dated 2017)",
  "molecular_target": "T1, Human matriptase-1 (Homo sapiens, UniProt Q9Y5Y6)",
  "T1 construct": "purchased Research & Diagnostics Systems, Inc",
  "T1 sequence (Q9Y5Y6 1-855)": "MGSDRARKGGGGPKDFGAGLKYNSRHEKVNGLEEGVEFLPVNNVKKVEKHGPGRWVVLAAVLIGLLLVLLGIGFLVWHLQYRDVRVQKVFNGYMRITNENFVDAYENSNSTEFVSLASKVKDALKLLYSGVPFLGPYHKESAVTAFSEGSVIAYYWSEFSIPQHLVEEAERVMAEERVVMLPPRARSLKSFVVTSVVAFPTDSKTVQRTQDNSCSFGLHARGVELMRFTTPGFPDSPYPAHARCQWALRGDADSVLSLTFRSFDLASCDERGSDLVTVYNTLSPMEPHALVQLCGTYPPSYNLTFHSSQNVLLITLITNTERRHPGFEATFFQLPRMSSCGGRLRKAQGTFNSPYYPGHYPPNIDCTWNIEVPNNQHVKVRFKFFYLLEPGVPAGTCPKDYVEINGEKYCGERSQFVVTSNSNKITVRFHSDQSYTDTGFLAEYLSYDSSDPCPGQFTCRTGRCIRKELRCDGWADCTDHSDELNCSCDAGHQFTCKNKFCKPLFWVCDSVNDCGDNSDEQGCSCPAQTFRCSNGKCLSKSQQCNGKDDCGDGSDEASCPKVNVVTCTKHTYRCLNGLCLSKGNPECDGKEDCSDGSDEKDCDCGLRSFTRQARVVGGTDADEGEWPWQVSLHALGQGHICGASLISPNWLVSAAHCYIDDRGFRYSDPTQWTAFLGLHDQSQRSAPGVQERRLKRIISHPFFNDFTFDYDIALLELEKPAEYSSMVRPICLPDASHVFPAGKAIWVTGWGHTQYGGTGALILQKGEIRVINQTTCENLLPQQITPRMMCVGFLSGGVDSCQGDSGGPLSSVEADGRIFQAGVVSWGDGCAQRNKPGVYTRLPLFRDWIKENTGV",
  "test": "Substrate cleavage by matriptase-1 on cell-displayed platform scaffold (eCLiPS3.0), flow cytometry",
  "assay_type": "biochemical",
  "conditions": "substrate displayed in platform scaffold; TBST",
  "description": "Reagents and Strains: Streptavidin-conjugated phycoerythrin (SA-PE) (Invitrogen, Life Technologies) was used without modifications. Human matriptase-1 (Research & Diagnostics Systems, Inc.) was used without modifications. Human plasmin (Haematologic Technologies Inc.) was used without modifications. Human tPA (Molecular Innovations) was used without modifications. YPet fused to the SH3 domain of Mona (monocytic adaptor) was used without modifications. TBST, 50 mM Tris-HCl, 150 mM NaCl, 0.05% Tween20, pH 7.4, was used. […]\nSubstrate Cleavage and Scaffold Stability Analysis: For screening and clone analysis, overnight cultures were subcultured by dilution into fresh medium (1:50) and grown for 1.5-2 hours. […] After incubation on ice (30 min), cells were washed with PBS and analyzed using a FACSAria™ cell sorter.\nFor protease cleavage assays, cultures were induced for 1 hour. […] Background hydrolysis of the regions flanking the substrate site (using platform eCLiPS3.0-NSUB_SP described in PCT patent application PCT/US13/54378, filed Aug. 9, 2013 and published as WO 2014/026136 on Feb. 13, 2014), was measured under each reaction condition to ensure that hydrolysis occurred in the designated substrate region. […]\nSpecifically, for each sample, conversion was determined by flow cytometry analyses using the relationship […]\n[formula] allowing substrate conversion to be expressed as […]",
  "data": [
    {"sequence": "VAGRSMRP (Cleavable moiety)", "values": [
      {"measurement": "cleavage by matriptase-1", "result": "cleavage"}
    ]}
  ]
}
